From PMC10532679 (Life, 2023)

Assays:
[1] = biological target: T1, wild-type H6-PKA-Cα, untreated (alpha isoform of the catalytic subunit of cAMP-dependent protein kinase) (murine, UniProt P05132 2-351); assay: SPR; OpenSPR-XT; CREBtide coupled (EDC/sulfo-NHS) to a carboxyl sensor, surface blocked with monomeric streptavidin and ethanolamine; PKA-Cα 0.078–10 µM flowed at 20 µL/min; 1X HBS-P+, 10 mM MgCl2, 0.01% NP-40, 0.5% BSA, 10 µM AMP-PNP, pH 7.4; equilibrium analysis; apparent; conditions: both partners purified
[2] = biological target: T1, wild-type H6-PKA-Cα, untreated (alpha …); assay: SPR; OpenSPR-XT; CREBtide coupled to a carboxyl sensor; PKA-Cα flowed at 75 µL/min; 1X HBS-P+, 10 mM MgCl2, 0.01% NP-40, 0.5% BSA, 10 µM AMP-PNP, pH 7.4; kinetics analysis; apparent; conditions: both partners purified

B1: CREBtide (peptide)
peptide: KRREILSRRPSYR
notes: Coupled by EDC/sulfo-NHS to the carboxyl sensor in SPR; source: bought: Alfa Aesar
Kd [1]: 3.3 ± 1 µM
Kd [2]: 2.8 ± 0.75 µM
